Earlier results on one substance are cited in article PMC7674454.

What is called Kd is the equilibrium constant for the complex coming apart.

The data set concerns the target calbindin D9k EF2 EF-hand 2 (Bos taurus) (UniProt P02633). Briefly: SPR. For orientation: Surface plasmon resonance follows binding to a sensor surface in real time, without labels.

As to “calbindin D9k EF1 EF-hand 1 (from UniProt P02633)”, the Kd was 3 pM.
